Measurements as given in publication PMC10029098.

B1: hairpin 1e (peptide)
chain: RWVARRDYRFDMGFDYWVWE
B2: peptide 1c (peptide)
chain: RWCARRDYRFDMGFDYWGWE

Key:
[1] = biological target: PD1 (Homo sapiens), Q15116; experiment: ELISA PD1/PDL1 blocking; details: modification not given
[2] = biological target: PD1 (Homo sapiens), Q15116; experiment: competitive binding kinetics; details: modification not given

Chain of PD1 (Homo sapiens), Q15116 (Q15116 25-170): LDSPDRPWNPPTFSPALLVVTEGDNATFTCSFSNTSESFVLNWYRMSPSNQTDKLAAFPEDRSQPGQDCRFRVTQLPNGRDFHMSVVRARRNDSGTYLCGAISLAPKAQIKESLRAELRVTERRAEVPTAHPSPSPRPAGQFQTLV

Binder | IC50 [1] [nM] | Ki [2] [nM]
B1 | 290 | 41
B2 | 3700 | –
